Results taken from patent publication US20110091971A1, “Differentiation of Pluripotent Stem Cells” (priority 2008, published 2011).
Values joined by “and” are separate entries in the source; they are usually repeats but may differ in a detail not shown here. Equal values may be shown once. “Also recorded” adds a separate entry of the source.

System: H1 or H9 human embryonic stem cells
Experiment: Activin A bioassay: differentiation of human embryonic stem cells to definitive endoderm, cell number and SOX17 intensity by high content analysis (96-well, four days);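 on Cell Number average: Raw total cell count per well from high content imaging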;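 on Sox 17 Intensity average: total fluorescence of the cell multiplied by cell area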
Type: cell-based
Source text: Activin A is an important mediator of differentiation in a broad range of cell types. […] A bioassay that measures this differentiation in human embryonic stem cells was adapted in miniaturized format to 96-well plates for screening purposes. Validation was completed using treatment with commercial sources of activin A and Wnt3a recombinant proteins and measuring protein expression of the transcription factor SOX17, which is considered a representative marker of definitive endoderm.
Live Cell Assay: Briefly, clusters of H1 or H9 human embryonic stem cells were grown on growth factor-reduced MATRIGEL™ (Invitrogen; Cat #356231)-coated tissue culture plastic. Cells were passaged using collagenase (Invitrogen; Cat # Cat #17104-019) treatment and gentle scraping, washed to remove residual enzyme, and plated in a ratio of 1:1 (surface area) on growth factor-reduced MATRIGEL™-coated 96-well plates (black, 96-well; Packard ViewPlates; Cat #6005182). Cells were allowed to attach as clusters and then recover log phase growth over a 1 to 3 day period, feeding daily with MEF conditioned medium supplemented with 8 ng/ml bFGF (R&D Systems; Cat #233-FB).
The assay was initiated by washing the wells of each plate twice in PBS and followed by adding an aliquot (100 μl) of test sample in DMEM:F12 basal medium (Invitrogen; Cat #11330-032) to each well. Test conditions were performed in triplicate, feeding […] by aspirating and replacing the medium from each well with test samples over a total four day assay period. On the first and second day of assay, test samples added to the assay wells were diluted in DMEM:F12 with 0.5% FCS (HyClone; Cat #SH30070.03) and 20 ng/ml Wnt3a (R&D Systems; Cat #1324-WN). On the third and fourth day of assay, test samples added to the assay wells were diluted in DMEM:F12 with 2% FCS, without any Wnt3a. Positive control samples consisted of recombinant human activin A (Peprotech; Cat #120-14) added at a concentration of 100 ng/ml throughout assay plus Wnt3a (20 ng/ml) on days 1 and 2. Negative control samples omitted treatment with both activin A and Wnt3a.
High Content Analysis: At the conclusion of four days of culture, assay plates were washed twice with PBS, fixed with 4% paraformaldehyde at room temperature for 20 minutes, then washed three times with PBS and permeabilized with 0.5% Triton X-100 for 20 minutes at room temperature. Cells were washed again three times with PBS and blocked with 4% chicken serum (Invitrogen; Cat #16110082) in PBS for 30 minutes at room temperature. Primary antibody (goat anti-human SOX17; R&D Systems; cat #AF1924) was diluted 1:100 in 4% chicken serum and added to each well for one hour at room temperature. Alexa Fluor 488 conjugated secondary antibody (chicken anti-goat IgG; Molecular Probes; Cat #) was diluted 1:200 in PBS and added to each sample well after washing three times with PBS. To counterstain nuclei, 4 μg/ml Hoechst 33342 (Invitrogen; Cat #H3570) was added for ten minutes at room temperature. Plates were washed once with PBS and left in 100 μl/well PBS for imaging.
Imaging was performed using an IN Cell Analyzer 1000 (GE Healthcare) utilizing the 51008bs dichroic for cells stained with Hoechst 33342 and Alexa Fluor 488. Exposure times were optimized from positive control wells and from untreated negative control wells stained with secondary antibody alone. Images from 15 fields per well were acquired to compensate for any cell loss during the bioassay and subsequent staining procedures. Measurements for total cell number and total SOX17 intensity were obtained from each well using IN Cell Developer Toolbox 1.7 (GE Healthcare) software. Segmentation for the nuclei was determined based on grayscale levels (baseline range 100-300) and nuclear size. Averages and standard deviations were calculated for each replicate data set. […]

[1] = supernatant concentration 1x, assay dilution 1:20
[2] = supernatant concentration 1x, assay dilution 1:20, control = R&D Sys Activin A 100 ng/ml on same plate
[3] = supernatant concentration 10x, assay dilution 1:20
[4] = supernatant concentration 10x, assay dilution 1:20, control = R&D Sys Activin A 100 ng/ml on same plate
[5] = supernatant concentration 10x, assay dilution 1:40
[6] = supernatant concentration 10x, assay dilution 1:40, control = R&D Sys Activin A 100 ng/ml on same plate
[7] = concentrated supernatant (10x; ACTD3 4x), assay dilution 1:20

## R&D Sys Activin A
Assay concentration 6.25 ng/ml
  Cell Number average: 5540
  Sox 17 Intensity % of control: 13%
  Sox 17 Intensity average: 5.49E+06
Assay concentration 12.5 ng/ml
  Cell Number average: 5784
  Sox 17 Intensity % of control: 19%
  Sox 17 Intensity average: 8.10E+06
Assay concentration 25 ng/ml
  Cell Number average: 6212
  Sox 17 Intensity % of control: 39%
  Sox 17 Intensity average: 1.69E+07
Assay concentration 50 ng/ml
  Cell Number average: 6218
  Sox 17 Intensity % of control: 33%
  Sox 17 Intensity average: 1.45E+07
Assay concentration 100 ng/ml
  Cell Number average: 8680
  Sox 17 Intensity % of control: 100%
  Sox 17 Intensity average: 4.37E+07
Assay concentration 200 ng/ml
  Cell Number average: 12032
  Sox 17 Intensity % of control: 285%
  Sox 17 Intensity average: 1.25E+08
Assay concentration 400 ng/ml
  Cell Number average: 13961
  Sox 17 Intensity % of control: 396%
  Sox 17 Intensity average: 1.73E+08

B1: ACTN41: activin A variant peptide, SEQ ID 42 (protein)
chain: GLECDGKVNLCCKKQDFVSFKDIGWNDWIIAPSGYHANSCSGLCPSHIAGTSGSSLSFHSTVINHYRMRGHSPFSDRGACCIPTKLRPMSMLYYDDGQNIIKKDIQNMIVEECGCS
[1]
  Cell Number average: 6073
  Sox 17 Intensity average: 1.42E+05
[2]
  Sox 17 Intensity % of control: 1.5%
[3]
  Cell Number average: 1397
  Sox 17 Intensity average: 1.46E+05
[4]
  Sox 17 Intensity % of control: 1.6%
[5]
  Cell Number average: 2643
  Sox 17 Intensity average: 6.30E+04
[6]
  Sox 17 Intensity % of control: 0.7%

B2: OriGene wildtype: wildtype human activin A expressed from commercial OriGene construct (Cat. No. TC118774, pCMV6-XL4); supernatant used as positive control (protein, UniProt P08476 311-426, looked up)
Inhibin beta A chain: GLECDGKVNICCKKQFFVSFKDIGWNDWIIAPSGYHANYCEGECPSHIAGTSGSSLSFHSTVINHYRMRGHSPFANLKSCCVPTKLRPMSMLYYDDGQNIIKKDIQNMIVEECGCS
modifications: Inhibin beta A chain activin A homodimer
HEK293-E supernatant, 4× concentrated versus 1× (neat)
  improvement of functional activity on concentrating the supernatant: approximately 1.5 fold
HEK293-E supernatants, OriGene in pCMV6-XL4 compared with ACTN 1 in pcDNA3.1(−)
  activity (SOX17 intensity) of supernatants: much greater activity; also recorded: superior
[1]
  Cell Number average: 979
  Sox 17 Intensity average: 1.819E+07
[2]
  Sox 17 Intensity % of control: 9.9%
[3]
  Cell Number average: 5548
  Sox 17 Intensity average: 2.035E+08
Supernatant concentration 10x, assay dilution 1:20, assay plates #007, #009, #010, listed as OriGENE WT
  Cell Number average: 12727 and 7061 and 11356
Supernatant concentration 50x, assay dilution 1:20, assay plates #008, #009, listed as OriGENE WT
  Cell Number average: 12200 and 9025
Supernatant concentration 50x, assay dilution 1:20, control = R&D Sys Activin A 100 ng/ml on same plate, listed as OriGENE WT
  Sox 17 Intensity % of control: 409.0% and 285.3%

B3: ACTN38: activin A variant peptide, SEQ ID 39 (protein)
chain: GLECDGKVNLCCKKQDFVSFKDIGWNDWIIAPSGYHANKCGGKCPSHIAGTSGSSLSFHSTVINHYRMRGHSPFSQLGACCVPTKLRPMSMLYYDDGQNIIKKDIQNMIVEECGCS
[1]
  Cell Number average: 2023
  Sox 17 Intensity average: 9.26E+04
[2]
  Sox 17 Intensity % of control: 1.0%
[3]
  Cell Number average: 3019
  Sox 17 Intensity average: 3.89E+05
[4]
  Sox 17 Intensity % of control: 4.2%
[5]
  Cell Number average: 2520
  Sox 17 Intensity average: 3.56E+04
[6]
  Sox 17 Intensity % of control: 0.4%

B4: ACTN39: activin A variant peptide, SEQ ID 40 (protein)
chain: GLECDGKVNLCCKKQNFVSFKDIGWNDWIIAPSGYHANECSGLCPSHIAGTSGSSLSFHSTVINHYRMRGHSPFSDMGSCCVPTKLRPMSMLYYDDGQNIIKKDIQNMIVEECGCS
[1]
  Cell Number average: 1596
  Sox 17 Intensity average: 5.13E+04
[2]
  Sox 17 Intensity % of control: 0.5%
[3]
  Cell Number average: 3362
  Sox 17 Intensity average: 1.31E+06
[4]
  Sox 17 Intensity % of control: 14.0%
[5]
  Cell Number average: 1331
  Sox 17 Intensity average: 4.81E+05
[6]
  Sox 17 Intensity % of control: 5.1%

B5: ACTN43: activin A variant peptide, SEQ ID 44 (protein)
chain: GLECDGKVNYCCKKQDFVSFKDIGWNDWIIAPSGYHANRCDGKCPSHIAGTSGSSLSFHSTVINHYRMRGHSPFSDMGACCVPTKLRPMSMLYYDDGQNIIKKDIQNMIVEECGCS
[1]
  Cell Number average: 657
  Sox 17 Intensity average: 1.85E+04
[2]
  Sox 17 Intensity % of control: 0.2%
[3]
  Cell Number average: 877
  Sox 17 Intensity average: 2.13E+05
[4]
  Sox 17 Intensity % of control: 2.3%
[5]
  Cell Number average: 1251
  Sox 17 Intensity average: 5.57E+04
[6]
  Sox 17 Intensity % of control: 0.6%

B6: R&D Sys Activin A (protein, UniProt P08476 311-426, looked up)
Inhibin beta A chain: GLECDGKVNICCKKQFFVSFKDIGWNDWIIAPSGYHANYCEGECPSHIAGTSGSSLSFHSTVINHYRMRGHSPFANLKSCCVPTKLRPMSMLYYDDGQNIIKKDIQNMIVEECGCS
modifications: Inhibin beta A chain activin A homodimer
100 ng/ml (the control itself)
  Sox 17 Intensity % of control: 100%
100 ng/ml (the plate's control itself)
  Sox 17 Intensity % of control: 100%

B7: ACTN16: activin A variant peptide, SEQ ID 17 (protein)
chain: GLECDGKVNLCCKKQLFVSFKDIGWNDWIIAPSGYHANHCSGLCPSHIAGTSGSSLSFHSTVINHYRMRGHSPFSQMGACCVPTKLRPMSMLYYDDGQNIIKKDIQNMIVEECGCS
[7]
  Cell Number average: 8775
  Sox 17 Intensity average: 3.89E+07
Concentrated supernatant (10x; ACTD3 4x), assay dilution 1:20, control = R&D Sys Activin A 100 ng/ml
  Sox 17 Intensity % of control: 89%
Primary screening, SOX17 expression, H1 cells
  higher potency of supernatant concentrated 10× relative to corresponding unconcentrated supernatant: 4 fold
[1]
  Cell Number average: 7068
  Sox 17 Intensity average: 1.36E+07
[2]
  Sox 17 Intensity % of control: 52.7%
[3]
  Cell Number average: 11118
  Sox 17 Intensity average: 5.55E+07
[4]
  Sox 17 Intensity % of control: 214.4%
[5]
  Cell Number average: 11064
  Sox 17 Intensity average: 6.46E+07
[6]
  Sox 17 Intensity % of control: 249.3%

B8: ACTN35: activin A variant peptide, SEQ ID 36 (protein)
chain: GLECDGKVNLCCKKQDFVSFKDIGWNDWIIAPSGYHANRCSGKCPSHIAGTSGSSLSFHSTVINHYRMRGHSPFSDMGSCCVPTKLRPMSMLYYDDGQNIIKKDIQNMIVEECGCS
[1]
  Cell Number average: 8553
  Sox 17 Intensity average: 7.94E+04
[2]
  Sox 17 Intensity % of control: 0.3%
[3]
  Cell Number average: 6805
  Sox 17 Intensity average: 1.26E+06
[4]
  Sox 17 Intensity % of control: 4.3%
[5]
  Cell Number average: 7926
  Sox 17 Intensity average: 6.76E+05
[6]
  Sox 17 Intensity % of control: 2.3%
